Experimental data taken from US20180280504A1, “GLYCAN-INTERACTING COMPOUNDS AND METHODS OF USE” (SIAMAB THERAPEUTICS, INC., priority 2014, published 2018).

Tested on: MDA-MD-231 STn+ cells
Assay: Fluorescence microscopy of ALEXA FLUOR 488-S3F binding and internalization, STn+ cells
Format: cell-based, human
Procedure: To analyze the internalization of antibodies by fluorescence microscopy, the following procedure was carried out. MDA-MD-231 STn− cells and MDA-MD-231 STn+ cells were cultured in Eagles minimum essential medium containing 10% fetal calf serum, 100 μg/ml penicillin, 100 UI/ml streptomycin, 45 μg/ml gentamycin, as well as 1 mg/ml G418 for STn+ cells. Cells were sub-cultured by treatment with Accutase buffer and seeded in microscope chamber slides at 10,000 cells/chamber in the case of STn− cells and 20,000 cells/chamber in the case of STn+ cells. All cells were cultured overnight at 37° C. Cells were subsequently incubated with either 1.5, 5 or 10 μg/ml S3F conjugated with ALEXA FLUOR® 488 dye (Thermo Fisher Scientific, Pittsburgh, Pa.) in complete media at 4° C. for 1 hour. Cells were then washed with ice-cold PBS in order to remove antibodies that were not bound to the cell surface. Complete media was then administered to each chamber and the cells were incubated at 37° C. for either 0, 15, 30 or 60 minutes in order to allow internalization of any surface-bound antibodies.
Following each time point, cells were washed twice with PBS in order to remove unbound antibodies. […] Cells were visualized the following day by analysis on a Nikon Eclipse Ti fluorescence microscope.

B1: S3F: 3F1 variable domains combined with IgG2a constant domains; heavy chain SEQ ID NO: 63, light chain SEQ ID NO: 64 (antibody)
heavy: QVQLQQSDAELVKPGASVKISCKASGYTFTDHAIHWVKQKPEQGLDWIGYISPGNGDIKYNEKFKDKVTLTADKSSSTACMHLNSLTSEDSAVYFCKRSLLALDYWGQGTTLTVSSAKTTAPSVYPLAPVCGDTTGSSVTLGCLVKGYFPEPVTLTWNSGSLSSGVHTFPAVLQSDLYTLSSSVTVTSSTWPSQSITCNVAHPASSTKVDKKIEPRGPTIKPCPPCKCPAPNLLGGPSVFIFPPKIKDVLMISLSPIVTCVVVDVSEDDPDVQISWFVNNVEVHTAQTQTHREDYNSTLRVVSALPIQHQDWMSGKEFKCKVNNKDLPAPIERTISKPKGSVRAPQVYVLPPPEEEMTKKQVTLTCMVTDFMPEDIYVEWTNNGKTELNYKNTEPVLDSDGSYFMYSKLRVEKKNWVERNSYSCSVVHEGLHNHHTTKSFSRTPGK
light: DIVMTQSHKFMSTSVGDRVSITCKASQDVGTNIAWYQQKPGRSPKVLIYSASTRHTGVPDRFTGSGSGTDFTLTISNVQSEDLTDYFCQQYSSFPLTFGVGTKLELKRADAAPTVSIFPPSSEQLTSGGASVVCFLNNFYPKDINVKWKIDGSERQNGVLNSWTDQDSKDSTYSMSSTLTLTKDEYERHNSYTCEATHKTSTSPIVKSFNRNEC
With B1 the “internalization by STn+ cells” value (37° C. 15-60 min, acid wash) was “capable of being internalized by STn+ cells” and the “binding to the surface of STn+ cells” value (488-S3F conjugate at 1.5, 5, 10 μg/ml, 4° C.) was “binds the surface of STn+ cells”.
